# Measured values reported in the DeepSol protein solubility set.
# Assay: soluble on expression in E. coli; label from the status in PepcDB or PDB records
row,Sequence,soluble on expression in E. coli
1,MGSDKIHHHHHHMSDRNTSNSLTLKERMLSAGAGSVLTSLILTPMDVVRIRLQQQQMIPDCSCDGAAEVPNAVSSGSKMKTFTNVGGQNLNNAKIFWESACFQELHCKNSSLKFNGTLEAFTKIASVEGITSLWRGISLTLLMAIPANMVYFSGYEYIRDVSPIASTYPTLNPLFCGAIARVFAATSIAPLELVKTKLQSIPRSSKSTKTWMMVKDLLNETRQEMKMVGPSRALFKGLEITLWRDVPFSAIYWSSYELCKERLWLDSTRFASKDANWVHFINSFASGCISGMIAAICTHPFDVGKTRWQISMMNNSDPKGGNRSRNMFKFLETIWRTEGLAALYTGLAARVIKIRPSCAIMISSYEISKKVFGNKLHQ,not soluble
2,MEDLTNVSSLLNMERARDKANEEGLALLQEEIDKMVETTELMTGNIQSLKNKIQILASEVEEEEERVKQMHQINSSGVLSLPELSQKTLKAPTLQKEILALIPNQNALLKDLDILHNSSQMKSMSTFIEEAYKKLDAS,soluble
3,MEEDSREDDFNGKIRRSLCEWLGPFEEFHDRVAKNQQTSRHGLIRSKMKPRPSPFVTLQAPPHESPSHVPVHVALQSMKNLVDERITEITHHEFADLKKGMNNVKSSATSSTDKKRKIGEDEDSQIEVKRKKESRNYIPPSTPDSGTHSTESDMIEEPNSDEVAAMLSIMKTLDTPKLSPLPKDFKVVCKEDEQPGPSSSKFPSDSSVSAASTSRESTPEPKLLGTLRIKALKPERVQKLIELAKTRGKLTDVVEVEKKVVEKVVEKQEKRVLEPLPPPPRPPSVPAVPAVPTPSRDPILGPGSGSARNSPLPPQKPANKTVQSLQGLQGSSRTMSPSPRNIRSTTPSVPSRPPSALSTHSHVETEVAAVATTSAPAEASAAVKPRFVCQWSHARLKKAQRVPFPDPSSTSTKTKGEFYHALAKDWKSKADNSKDRVTRPLNYMLSSVFFVLEAIWKADKERTTQSKMQCASIYRDTYELLGVAVFQGVRDTDDSLAVHILPRVKVIGQVMLAVMQYQMYIFRSEQAIKTMSRLDMREVSESIDIRPVSRASDSSSVHSQHLTVPTNKAVTSVAHGTPKPSPSAGSTPSGPTGAPVIPWIASIQACQNMVSMPQIVYDAYKSQLKTANGLMLASRYWEDSKTLSNIIDSGTFVKDVESIVGKSISMDMQFADLATFVLTAVGSLKAEYEEEQKQPAKPILAKVKKGLDLAIRTGTFHSDRPPPVHRPSNNTPDGKARRKQ,not soluble
4,AVCDTPHERLTILYTKILDLLKHFPKHAAYRKYTEQITSEKLELVKLEPDVKKLENLLQGG,soluble
5,RIGVIGTGAIGGFYGLMLAHAGHDVHFLLRSEFEAVNRAGLSLNSAVHGFRRLAPVQAYHSAQDMPPCDWLLVGAKTTGNDELAPLIRAAAAPGAKVLLLQNGLGVEERLRPLLPESLHLLGGLCFICVHRGEPGVIEHQAYGGVNLGYHSGPADERRRREIVEEGAALFRESGLESTAMPDLEQARWQKLVWNIPYNGLSVLLKSSTAPLMANADSRSLIEAIMEEVIGAAGACGFILPEGYADQLLAATERMPDYRPSMYHDFAHGRPLELAAIYAAPLARAAA,not soluble
6,MWDQHMHCMFSGDSDADPVLMINSAINKGLDGICFTDHLDYDYKEEPGLFDLDIAAYEKRIKRLAIVLKEKGCPINIHWGIEIGLQPHITDKNNEVAKKYPFDLVIGSSHVVNGIDPYYPAFYKGKTEHEAYTEYFESILDNLHSGADFDVYGHIDYVVRYGPDKNKYYSYERYADIIDAILKEIISQGKGIELNTAGFKYGLGHSNPTEDVLKRYHELGGEIITVGADAHKPEHVAYDFDKVSNILKDAGFMYYTVFENRVPAFIKL,not soluble
7,MSLAGGYVIDTTENTFQAMVQTSATFPILLFLWVPTDDRLFAMARALGDAVNKLNGQIQLSRIDIASNPSIAQAFQIQGAPALFALIGGRPMPILQGLPSDEELQQITDVVVPKLIAAAQQAGVTGTAPYSGDPDSDAANSASAGSVQDQVPPEHQEAYMLAQQGDYAGAAAAYEKVLEADPNDTRAARERAKALLLARSANADVRVVRAAAADKPDDVDAQLAVADIDMIGGQIQDAFDRLLDFVAAGHKADIEPVRQRLLEYFTIPEPTDERLKRARRRLATLMYEGHHHHHH,soluble
8,MSLSAPASEIAALILRGFDDYREQFREITDGARARFEQAQWQEAQRASAQRINLYEEKVAETVAGLRAGLADSELLDVERWPIIKSAYIAQIDLRLDDELAETWFNSIFCGLFSHDNISDGTMFVHTTRPSLRAHARAPYTRTYRPGGDLRQALEKIFDDYRFDVPYDDRERDLERIDALLHSNLPDWVCKDPDLAIELIGSVFYRNKGAYLVGRLFTPDEQWPLVFPLLHREDHGIQFDTVITDEAEVSIIFSFTRSYFMVDVPVPAELVAFLKRLLPGKHLAELYTSIGFYKQGKSEFYRALINHLATTDDRFVMAPGVRGMVMSVFTLPGFNTVFKIIKDRFNPSKSVDHATVIQKYQLVKNHDRVGRLADTQQFADFRFPVSKFEPECLAELLEVAPSTVVMEGDVVLIRHCWTERRMTPLNIYLENASEAQTREALNDYGLAIKQLAAANIFPGDMLLKNFGVTRHGRVVFYDYDEICYLTEVNFRYIPEPRFPEDEMSSEPWYSVGPNDVFPEEFPRFLFVDLNQRRLFAKLHGNLYDAKYWQGLQEQIREGKVIDVFPYRRQETPEQLLEGHHHHHH,soluble
9,GNHHHHHMMLIKKIEELKNSEIKDIIDKRIQEFKSFKNKSNEEWFKELCFCILTANFTAEGGIRIQKEIGDGFLTLPREELEEKLKNLGHRFYRKRAEYIVLARRFKNIKDIVESFENEKVAREFLVRNIKGIGYKEASHFLRNVGYDDVAIIDRHILRELYENNYIDEIPKTLSRRKYLEIENILRDIGEEVNLKLSELDLYIWYLRTGKVLK,soluble
10,MGSDKIHHHHHHMRDMCSISGIIVKDNQISAKYSIDMMKILKHRGRDNSGLLLDDEVIYFNDFEDVEDLEEEMIGNLSLAHNRLAIVGRYGVQPIPNEDETIWLVCNGEIYNYIELREYLKQNHEFRTDSDNEVIIHLYEEEKLEELDGDYAFAIYDKSKNVVRLARDMFGVKPLFYVDRDKYFAFASERKALWHLLINIDGCERDLDELNSKIKTLKPNSQLIYYLDDNRFEIIEGFKKLELNYMKERSYEEAKEYLDRALKNSVLKRVRGLDKVGIICSGGVDSSLIAKLASLYCEVILYAVGTENSEDLIYAERLAKDLNLKLRKKIISEEEYEEYVFKVAKAIDEVDLMKIGVGIPIYVASEMANEDGLKVVLSGQGADELFGGYARHERIYRERGEEELKKELLKDVYNLYKVNLERDDHCTMANGVELRVPFLDEEVVEIALSIPIEYKMSELSNRPYAESNISLKSEPINGLKNTNLNIKCVRSVRKKILRDVASQYLPDYIAYRPKKAAQYGSGGEKMIYKVAKKYGFSKKRINEFLDMLKRKIVSEF,not soluble
11,DKVQNAVMQAMVRGSLNKDLAAQIKDLGKTTEKRAMFIARDQSSKLNAALTQARHEEVGIKKYMWSASLDERVRESHAEKDGQIFEYANPPADTDHPGHDFNCRCVQI,not soluble
12,VHYGLKGITCVETSISHIDGEKGRLIYRGHHAKDIALNHSFEEAAYLILFGKLPSTEELQVFKDKLAAERNLPEHIERLIQSLPNNMDDMSVLRTVVSALGENTYTFHPKTEEAIRLIAITPSIIAYRKRWTRGEQAIAPSSQYGHVENYYYMLTGEQPSEAKKKALETYMILATEHGMNASTFSARVTLSTESDLVSAVTAALGTMKGPLHGGAPSAVTKMLEDIGEKEHAEAYLKEKLEKGERLMGFGHRVYKTKDPRAEALRQKAEEVAGNDRDLDLALHVEAEAIRLLEIYKPGRKLYTNVEFYAAAVMRAIDFDDELFTPTFSASRMVGWCAHVLEQAENNMIFRPSAQYTGAIPEEV,soluble
13,MKRGIIIIEDKKVSVTGNEVWMTATEIAGLFRAGVPAVNAAIKAVRKSDVLNDYEVCRYMRLENGLHADVYALEIIIPIAFRLNTYCTHVFRRWLVEKALAKEKQQAYVMLIHKANGYC,not soluble
14,MAEHDLTARMAGHLDCHLVLPLLEFLQERHLYPEEEILEAKIRLLRGTNMVDYAMDIHKSRYGTDDVPEDMVKRRAEVVSRLTSLGEAIDNIHQNQQIGPDQIETLYQYAKFQFDCGNYSFAAQYLHQYRALCTNIERSLSALWGKLAAEILMQNWDVALEELNRLKEIIDSKNFSSPLNQLQNRIWLMHWSIFIFYNHENGRNGIIDLFFQERYLNAIQTNAPHLLRYLATAVVVNKRRRNMLKELIKVIQQEQHSYKDPITEFLECLFVNYDFDGAQQKLIECEEVILNDPFLGKRIEEGNSITVPLRDEFLENARLFIFETYCRIHRSIDIGMLSQKLNMRYDEGELWIMNLVRNSKLDAKIDSVSGTLIMTTNHVNIHEQFIESLKNLNMRTSMLAKNIVEPAQAMQQATR,not soluble
15,SEEGSNKREGYNDQKQQARAGCGKELAVEEMIAAVSERKKGCCPPPPPPHGAPATPARNRPQTQGRGAAAPVVGWPPIRSFRRNLASSSSSKHSPEPQNDNANAKVTLTCKKNPLVKINMDGIPIGRKIDLAAYNSYDGLSSAVKQLFHGFLQAQKDQTNAQIAQQGADDKIFYQLLDGSGEYTLVYEDSEGDRMLVGDVPWKVFVSTAKRLRVLRSSELSHTLIGATARV,soluble
16,MGSDKIHHHHHHAAAPAFSALGDTASSQARHIATVFPGRMTGTPPEMLSADYLRQQFALMGYQSDVRSFNTRYIYTDSNQRKNWHNATGSTVIAAHEGKVRQQIIIMAHLDTYAPQSDKDVENNLGGLTLQGIDDNAMGLGVLLELAEHLKNVPTRYGIRFIATSGEEEGRLGAQNLLQRMSEAEKKNTLLVINLDNLVVGDKLYFNSGRSTPASVRKLTRDRALAIARSKGIAAYTNPGLNPAYPKGTSCCNDASVFDNAGIPVLSVEATNWSLGKKDGYQQRSKSASFPQGTSWHDVQLDNQQYIDHALPGRIEHRGREVVKVMLPLVKELAKVEKKS,not soluble
17,MNFVTLTSDEFNAFTTKHFSHYTQSAIHYNHRVDLKGDVHLVGVKDDNGQVIAGCLLTEARTLKFFKYFYTHRGPVMDYTNQSLVAFFFKALTSYLKKHNCLYVLVDPYLIENLRNADGEIVKSYDNRAFVRTMDKLGYKHQGFPVGYDSMSQIRWLSVLDLKDKTEDQLLKEMDYQTRRNIKKTYDIGVKTKTLTIDETQTFFDLFHMAEEKHGFKFRELPYFEEMQKLYDDHAMLKLAYIDLNEYLKTLQLKQQQLTAELSGVEEALEESPNSKKNKTKRTQLEQQLNSNKRKIDNTIEQIEQDGAVLNLASALFIYNEHEVYYLSSGSNPKYNAYMGAYHLQWEMIKFAKAHHIDRYNFYGITGDFSESSEDYGVQQFKKGFNAHVEEYIGDFIKPIKPLLYKVQTYLNHKRR,not soluble
